From PMC8626469 (2021) come the findings set out here.

Where only a bound is given, the exact number is not on record here.

For one assay, the target named is T1, Helicobacter pylori FabX (H. pylori).
T1 chain: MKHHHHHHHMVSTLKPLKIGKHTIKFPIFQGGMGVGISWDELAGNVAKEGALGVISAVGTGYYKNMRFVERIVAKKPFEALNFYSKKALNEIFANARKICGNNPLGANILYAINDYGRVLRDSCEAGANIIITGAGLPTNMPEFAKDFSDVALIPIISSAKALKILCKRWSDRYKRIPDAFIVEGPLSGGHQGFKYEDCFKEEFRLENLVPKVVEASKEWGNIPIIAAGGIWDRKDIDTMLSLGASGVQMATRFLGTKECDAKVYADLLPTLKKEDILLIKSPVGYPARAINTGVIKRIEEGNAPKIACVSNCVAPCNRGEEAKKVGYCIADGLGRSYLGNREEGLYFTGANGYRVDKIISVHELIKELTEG
As to the kind of experiment: ITC.

The target in assay [1] is Helicobacter pylori FabX R164A (H. pylori). As to the kind of experiment: ITC.

B1: Helicobacter pylori holo-acyl carrier protein (natural protein)
chain: MALFEDIQAVIAEQLNVDAVQVTPEAEFVKDLGADSLDVVELIMALEEKFGVEIPDEQAEKIINVGDVVKYIEDNKLA
modifications: phosphopantetheine group (PPant) on Ser36
For the molecule B1, the dissociation constant (Kd) with Helicobacter pylori FabX was 1640 nM; in assay [1], greater than 200 µM.
